In article PMC5506036, “SmMYB36, a Novel R2R3-MYB Transcription Factor, Enhances Tanshinone Accumulation and Decreases Phenolic Acid Content in Salvia miltiorrhiza Hairy Roots”:

T1: SmMYB36 (Salvia miltiorrhiza, UniProt A0A059PRJ2 1-160)
T1 sequence: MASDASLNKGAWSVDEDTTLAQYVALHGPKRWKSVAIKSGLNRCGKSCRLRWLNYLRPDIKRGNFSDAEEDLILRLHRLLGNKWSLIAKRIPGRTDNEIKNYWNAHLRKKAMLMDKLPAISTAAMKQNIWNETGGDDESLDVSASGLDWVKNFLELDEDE

B1: MBS1 core (dsDNA)
DNA 1: CAACTG
DNA 2: CAGTTG
B2: MCT-MBS3-1 (dsDNA)
DNA 1: TATCATCTTCGGTAACTGATACTCAAGGAT
DNA 2: ATCCTTGAGTATCAGTTACCGAAGATGATA
B3: GGPPS1-MRE (dsDNA)
DNA 1: TTTTTCGATAGTAACCTAATTTTCTGTAGTG
DNA 2: CACTACAGAAAATTAGGTTACTATCGAAAAA
B4: C4H1-MBS1 (dsDNA)
DNA 1: TCTTTAAAACTCCAACTGATATGATGTTCG
DNA 2: CGAACATCATATCAGTTGGAGTTTTAAAGA
B5: C4H1-MBS3 (dsDNA)
DNA 1: GTTTAAAAGACATAACTGAGTTATCGAACA
DNA 2: TGTTCGATAACTCAGTTATGTCTTTTAAAC
B6: DXR-MRE (dsDNA)
DNA 1: CCCCTTTTACAAAACCTAATTTCCCCCCAT
DNA 2: ATGGGGGGAAATTAGGTTTTGTAAAAGGGG
B7: MBSI-2 core (dsDNA)
DNA 1: AAAAAACGGTTA
DNA 2: TAACCGTTTTTT
B8: HPPR-MRE-1 (dsDNA)
DNA 1: TTTTGTGGGACAAACCTAAAAAGAAACTGAA
DNA 2: TTCAGTTTCTTTTTAGGTTTGTCCCACAAAA
B9: MCT-MBS2-2 (dsDNA)
DNA 1: AAAACAGGCATCCGGTCAGTAAGTCCGCAT
DNA 2: ATGCGGACTTACTGACCGGATGCCTGTTTT
B10: MBSII core (dsDNA)
DNA 1: AAAAGTTAGTTA
DNA 2: TAACTAACTTTT
B11: MCT-MBS2-1 (dsDNA)
DNA 1: AGGAAACCCTCACGGTCACCTTAACATTCA
DNA 2: TGAATGTTAAGGTGACCGTGAGGGTTTCCT
B12: MBSI-1 core (dsDNA)
DNA 1: AAAAAACCGTTA
DNA 2: TAACGGTTTTTT
B13: 4CL2-MRE (dsDNA)
DNA 1: TTTGTAGAGTTGAACCTAAAGATGATGGGTG
DNA 2: CACCCATCATCTTTAGGTTCAACTCTACAAA
B14: MCT-MBS3-2 (dsDNA)
DNA 1: AACTAGATGAATTAACTGGTAGCAATTACC
DNA 2: GGTAATTGCTACCAGTTAATTCATCTAGTT
B15: HMGS1-MBS3 (dsDNA)
DNA 1: GTGTGTGCTGTTTAACTGATCCGCTATTTC
DNA 2: GAAATAGCGGATCAGTTAAACAGCACACAC
B16: HPPR-MRE-2 (dsDNA)
DNA 1: AATGATTGATTTAACCTAATCATTGTGAAACC
DNA 2: GGTTTCACAATGATTAGGTTAAATCAATCATT
B17: GGPPS1-MBS2 (dsDNA)
DNA 1: TTAAAATCGTTACGGTCATACCACGGAAAC
DNA 2: GTTTCCGTGGTATGACCGTAACGATTTTAA
B18: IPPI-MBS1 (dsDNA)
DNA 1: CCGCCGCCGCCACAACTGTAATGGTGCTTT
DNA 2: AAAGCACCATTACAGTTGTGGCGGCGGCGG

What follows are binders tested against T1, SmMYB36 (assay: EMSA; Invitrogen EMSA kit, probe:protein mass ratio 1:15, 10 µL; protein eluted in 50 mM NaH2PO4, 300 mM NaCl, 250 mM imidazole pH 8.0; binding buffer and temperature not given). Conditions: protein: recombinant; tags: His (pET32a fusion); blunt.

Binding result, binds:
B1, B2, B3, B4, B5, B6, B7, B8, B9, B10, B11, B12, B13, B14, B15, B16, B17, B18
